These results are taken from US20150232560A1 (Hoffmann-La Roche, published 2015).

Several values for one entry are separate records, joined by “and”; a condition that tells them apart may be missing. Identical values can stand only once.

The target of test [1] is T1, IGF-1R(1340-1366)amid (C-terminal amide).
T1 construct: Used as the analyte free in solution; also called IGF-1R peptide (free in solution); non-phosphorylated IGF-1R peptide
T1 peptide: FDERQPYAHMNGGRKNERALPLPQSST
The experiment in a line: SPR (BIAcore 3000, SA sensor, 25 C): ss-FABs hybridized on the surface-captured biotinylated T40-Bi ss-DNA linker; peptide as analyte in solution. The text has this: (§1) FIG. 17 Schematic drawing of the BIAcore assay, presenting the complex s on the sensor surface. On Flow Cell 1 (=FC1) (not shown) amino-PEO-biotin was captured. On FC2, FC3 and FC4 bivalent binding agents with increasing linker length were immobilized. Analyte 1: IGF-1R-peptide containing the M-1.4.168 ss-FAB epitope (thin line)-the M-8.1.2 ss-FAB phospho-epitope is not present, because this peptide is not phosphorylated; analyte 2: pIGF-1R peptide containing the M-8.1.2 ss-FAB phospho-epitope (P) and the M-1.4.168 ss-FAB epitope (thin line). Analyte 3: pINR peptide, containing the cross reacting M-8.1.2 ss-FAB phospho-epitope, but not the epitope for M-1.4.168.
(§2) The dissociation was monitored at 50 μl/min for 5.3 min. The system was regenerated after each concentration step with a 12 sec pulse of 250 mM NaOH and was reloaded with ss-FAB ligand.

Test [2] addresses T2, IGF-1R(1340-1366)[1346-pTyr]amid (phosphotyrosine at 1346; C-terminal amide).
T2 construct: Used as the analyte free in solution; also called pIGF-1R peptide (free in solution); phosphorylated IGF-1R peptide
T2 peptide: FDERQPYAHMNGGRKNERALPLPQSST
Described as above.
Text: as §1, §2

The target of test [3] is T2, IGF-1R(1340-1366)[1346-pTyr]amid. The test is described as follows: SPR (BIAcore 3000), ss-FABs hybridized on biotinylated T40-Bi linker on SA chip, peptide in solution; T40-Bi linker (linker 10).
Test [4] has as its target T3, INR(1355-1382)[1361-pTyr]amid (human, phosphotyrosine at 1361; C-terminal amide).
T3 construct: Used as the analyte free in solution; also called pINR peptide; phosphorylated insulin receptor peptide (free in solution)
T3 peptide: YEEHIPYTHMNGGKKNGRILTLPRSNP
The experiment in a line: SPR (BIAcore 3000, SA sensor, 25 C): single ss-FAB hybridized on the surface-captured biotinylated T40-Bi ss-DNA linker; peptide as analyte in solution.

Test [5] has as its target T1, IGF-1R(1340-1366)amid. The test is described as follows: SPR (BIAcore 3000, SA sensor, 25 C): ss-FABs hybridized on the surface-captured biotinylated T0-Bi ss-DNA linker; peptide as analyte in solution.
Test [6] concerns the target T2, IGF-1R(1340-1366)[1346-pTyr]amid. The test is described as above.
Test [7] has the same target. The experiment in a line: SPR (BIAcore 3000), ss-FABs hybridized on biotinylated T0 linker on SA chip, peptide in solution; T0 linker (no spacer; linker 16 as printed).

B1: T40 dual binding agent: ss-FAB 8.1.2 and ss-FAB 1.4.168 on the biotinylated T40-Bi 77-mer ss-DNA-Linker (linker 10) (bispecific antibody, V domains shown)
VH 1: QCDVKLVESGGGLVKPGGSLKLSCAASGFTFSDYPMSWVRQTPEKRLEWVATITTGGTYTYYPDSIKGRFTISRDNAKNTLYLQMGSLQSEDAAMYYCTRVKTDLWWGLAYWGQGTLVTVSA
VL 1: QLVLTQSSSASFSLGASAKLTCTLSSQHSTYTIEWYQQQPLKPPKYVMELKKDGSHTTGDGIPDRFSGSSSGADRYLSISNIQPEDESIYICGVGDTIKEQFVYVFGGGTKVTVLG
VH 2: EVQLQQSGPALVKPGASVKMSCKASGFTFTSYVIHWVKQKPGQGLEWIGYLNPYNDNTKYNEKFKGKATLTSDRSSSTVYMEFSSLTSEDSAVYFCARRGIYAYDHYFDYWGQGTSLTVSS
VL 2: QIVLTQSPAIMSASPGEKVTLTCSASSSVNYMYWYQQKPGSSPRLLIYDTSNLASGVPVRFSGSGSVTSYSLTISRMEAEDAATYYCQQWSTYPLTFGAGTKLELK
modifications: ss-DNA on a hinge cysteine
notes: Assembled on the SA chip on the biotinylated linker T20-(Biotin-dT)-T20; also called T40-bi complex
The Kd is a measure of binding affinity in units of concentration. Regarding B1, the Kd in the test with IGF-1R(1340-1366)amid [1] is 0.973 nM and 1 nM; in test [2], 0.0125 nM; in test [3] it was 0.01 nM. The t1/2 diss in the test with IGF-1R(1340-1366)amid [1] was found to be 4.3 min.

B2: ss-FAB' 1.4.168 (Fab, V domains shown)
VH: DVKLVESGGGLVKPGGSLKLSCAASGFTFSDYPMSWVRQTPEKRLEWVATITTGGTYTYYPDSIKGRFTISRDNAKNTLYLQMGSLQSEDAAMYYCTRVKTDLWWGLAYWGQGTLVTVSA
VL: B1 VL 1
modifications: 17mer ss-DNA comprising SEQ ID NO: 05 with fluorescein, coupled via maleimide to a cysteine of the FAB' hinge region
notes: FAB' made from the murine monoclonal antibody M-1.4.168 by pepsin cleavage and cysteamine reduction; the constant parts are not; also called ss-FAB 1.004.168; fluorescein-ss-FAB' 1.4.168
For B2, in test [4], the binding result is on record as “no binding”.

B3: T0 dual binding agent: ss-FAB 8.1.2 and ss-FAB 1.4.168 on the biotinylated T0-Bi 37-mer ss-DNA-Linker (linker 17) (bispecific antibody, V domains shown)
VH 1: B1 VH 1
VL 1: B1 VL 1
VH 2: B1 VH 2
VL 2: B1 VL 2
modifications: ss-DNA on a hinge cysteine
notes: The protein parts are the same in both cases
As for B3, the Kd with IGF-1R(1340-1366)amid [5] is 1.2 nM and 1 nM; in test [6] it was 0.0344 nM; in test [7], 0.03 nM. For the same molecule, the t1/2 diss with IGF-1R(1340-1366)amid [5] is 5 min.
